The test concerns the target mouse TRPV4 fused to mCherry (mouse, UniProt Q9EPK8 1-871). Nature of the test: cross-correlation raster image correlation spectroscopy.

Sequence of mouse TRPV4 fused to mCherry (Q9EPK8 whole entry, the tested form may be a part): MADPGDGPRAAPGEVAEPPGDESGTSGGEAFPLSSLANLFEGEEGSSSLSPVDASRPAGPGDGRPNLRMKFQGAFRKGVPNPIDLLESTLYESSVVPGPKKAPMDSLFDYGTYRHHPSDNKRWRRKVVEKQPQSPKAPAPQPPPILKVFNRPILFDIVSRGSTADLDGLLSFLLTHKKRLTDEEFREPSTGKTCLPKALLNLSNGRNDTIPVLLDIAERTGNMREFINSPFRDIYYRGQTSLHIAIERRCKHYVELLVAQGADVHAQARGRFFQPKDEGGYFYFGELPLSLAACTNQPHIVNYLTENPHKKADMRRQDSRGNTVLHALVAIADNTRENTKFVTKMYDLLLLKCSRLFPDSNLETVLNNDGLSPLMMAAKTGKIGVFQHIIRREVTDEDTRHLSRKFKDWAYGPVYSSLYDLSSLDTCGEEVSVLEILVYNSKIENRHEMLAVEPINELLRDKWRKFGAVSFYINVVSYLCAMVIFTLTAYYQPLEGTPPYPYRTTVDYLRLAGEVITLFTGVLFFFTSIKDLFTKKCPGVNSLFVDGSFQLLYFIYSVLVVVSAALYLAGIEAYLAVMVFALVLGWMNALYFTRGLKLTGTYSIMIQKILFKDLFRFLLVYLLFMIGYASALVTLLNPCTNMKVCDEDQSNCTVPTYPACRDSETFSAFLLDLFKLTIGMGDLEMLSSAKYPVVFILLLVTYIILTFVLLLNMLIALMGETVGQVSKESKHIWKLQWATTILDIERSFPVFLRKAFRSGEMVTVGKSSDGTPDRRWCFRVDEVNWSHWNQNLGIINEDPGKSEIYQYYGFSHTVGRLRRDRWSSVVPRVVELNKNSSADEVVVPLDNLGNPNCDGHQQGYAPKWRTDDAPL

B1: AKAP150 fused to EGFP (natural protein, UniProt P24587 1-714, looked up)
chain: METSVSEIQIETKDEKRPEAASPQKERQERKTATLCFKRRKKVNKKKAKAGSKTAEETEKHAPEAGGSGQRQPAGAWASIKRLVTHRKPSESAEKQKPSEAEMQPEDGALPKKKTKSKLKIPCIRFSRGAKRSRPSKLTEDSGYVRVQGEADDLEIKAQIQPDEQATQAKSTQGLQEDVIVRDGKEIQESHISNNVISGEHVIGIELELEKESSALRMRTPGSEKEAKVILVKQGVQVQEASVLENSAADSPQPVTSTAPLSPATTHQLGLEEPSDSIRESAPSGKDDGRRKTAAEEKKSGETALGQAEEASSVSQADKSVLSQAEEATVGHTEEATVIQAQSQAKEGKLSQAEEATVAQAKETVLSQAEEVKLSQIEEPAISQAKKATVGQAKEAYVSQAEEAIVGHTEKATMGQAEEATVGHIEKTTVGQAEEATVGQAEEATVGQAEEATVGQAEEATVGQAEEATVGQAGEATVSHIEKTTVGQAEEAIVGQAEEATVGQAEEATVGQAEEATVGQAEEATVDQAEEATVGQAEEATVGQAGEAAVGQAEEAIVAQAEEATVGQAGEATVGQAEKATVGQAEEPIVGQAEETVLRHASDLKVNGVDAEKPRSEESKRMEPIAIIITDTEISEFDVKKSKNVPKQFLISMENEQVGVFANDSDFEGRTSEQYETLLIETASSLVKNAIELSVEQLVNEMVSEDNQINTLFQ
Turning to B1, the “cross-correlation ratio (Gcc/[mean of G_(TRPV4) and G_(AKAP)])” value was determined as 0.4.

The record behind these values is article PMC4003184 (The Journal of General Physiology, 2014).
